The source of these data is article PMC8551656, “Discovery of a novel role of tumor suppressor PDCD4 in stimulation of translation termination” (The Journal of Biological Chemistry, 2021).

In the test the target is T1, poly(A)-binding protein (PABP) (human, UniProt P11940 1-636).
T1 construct: source: E. coli BL21, purified (Ni-NTA agarose, ion-exchange chromatography)
The test can be described thus: pull-down; GST-PDCD4 (40 pmol) incubated with PABP (40 pmol) in solution, 20 μl, 1 h at 4 °C, 25 mM Tris-HCl pH 7.5, 10% glycerol, 100 mM KCl, 2.5 mM MgCl2, 2 mM DTT, 0.25 mM spermidine, 0.2 mM GTP; then held on glutathione-sepharose 4B, four washes, release by TEV protease, western blot. Particulars: both partners purified. (In general: In western blotting, separated proteins are transferred to a membrane and probed.)

T1 sequence (P11940 whole entry): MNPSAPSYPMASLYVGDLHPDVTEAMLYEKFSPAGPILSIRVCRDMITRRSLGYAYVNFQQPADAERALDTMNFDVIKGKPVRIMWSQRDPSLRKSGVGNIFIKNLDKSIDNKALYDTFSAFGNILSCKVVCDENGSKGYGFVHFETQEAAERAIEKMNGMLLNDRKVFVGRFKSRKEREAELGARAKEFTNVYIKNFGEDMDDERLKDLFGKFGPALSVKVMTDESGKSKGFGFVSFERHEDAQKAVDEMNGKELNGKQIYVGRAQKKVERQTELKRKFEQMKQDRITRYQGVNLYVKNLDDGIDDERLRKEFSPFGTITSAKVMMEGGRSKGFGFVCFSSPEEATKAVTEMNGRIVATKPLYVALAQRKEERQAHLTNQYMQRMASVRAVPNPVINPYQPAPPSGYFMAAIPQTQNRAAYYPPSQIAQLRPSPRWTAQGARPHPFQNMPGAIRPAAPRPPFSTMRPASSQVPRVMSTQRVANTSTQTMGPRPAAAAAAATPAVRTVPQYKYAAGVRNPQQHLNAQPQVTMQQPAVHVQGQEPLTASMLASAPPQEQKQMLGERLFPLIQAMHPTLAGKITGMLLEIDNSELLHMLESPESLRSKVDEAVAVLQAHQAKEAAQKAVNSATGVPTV

B1: GST-tagged programmed cell death 4 protein (PDCD4) (natural protein, human, UniProt Q53EL6-1 1-469, looked up)
chain: MDVENEQILNVNPADPDNLSDSLFSGDEENAGTEEIKNEINGNWISASSINEARINAKAKRRLRKNSSRDSGRGDSVSDSGSDALRSGLTVPTSPKGRLLDRRSRSGKGRGLPKKGGAGGKGVWGTPGQVYDVEEVDVKDPNYDDDQENCVYETVVLPLDERAFEKTLTPIIQEYFEHGDTNEVAEMLRDLNLGEMKSGVPVLAVSLALEGKASHREMTSKLLSDLCGTVMSTTDVEKSFDKLLKDLPELALDTPRAPQLVGQFIARAVGDGILCNTYIDSYKGTVDCVQARAALDKATVLLSMSKGGKRKDSVWGSGGGQQSVNHLVKEIDMLLKEYLLSGDISEAEHCLKELEVPHFHHELVYEAIIMVLESTGESTFKMILDLLKSLWKSSTITVDQMKRGYERIYNEIPDINLDVPHSYSVLERFVEECFQAGIISKQLRDLCPSRGRKRFVSEGDGGRLKPESY
notes: human PDCD4, isoform 1, UniProt Q53EL6-1; cDNA cloned into pGEX-6p-1; printed primers run from the start codon to the last codon; Held on glutathione-sepharose by GST in the pull-down; also called GST-PDCD4; recombinant PDCD4; source: E. coli BL21, purified (glutathione-sepharose 4B, eluted with glutathione; HiTrapQ)
On to B1, for which the binding result is listed as “binds”.
